Results reported in article PMC12151379, “The liprin-α/RIM complex regulates the dynamic assembly of presynaptic active zones via liquid–liquid phase separation” (PLOS Biology, 2025).

Biological target: the molecule itself
Test: SEC-MALS; 100 μl sample (individual proteins or mixture, up to 500 μM) on Superdex 200 Increase 10/300 GL in TBS

B1: liprin-α2_CC2 (residues 259–542) (domain or fragment, human, UniProt O75334 259-542, looked up)
chain: GSIDSTDETSQIVELQELLEKQNYEMAQMKERLAALSSRVGEVEQEAETARKDLIKTEEMNTKYQRDIREAMAQKEDMEERITTLEKRYLSAQRESTSIHDMNDKLENELANKEAILRQMEEKNRQLQERLELAEQKLQQTMRKAETLPEVEAELAQRIAALTKAEERHGNIEERMRHLEGQLEEKNQELQRARQREKMNEEHNKRLSDTVDRLLTESNERLQLHLKERMAALEEKNVLIQESETFRKNLEESLHDKERLAEEIEKLRSELDQLKMRTGSLIEP
notes: liprin-α2, human, GenBank AF034799.1, CC2 region, residues 259–542; Dimeric by SEC-MALS at 500 μM; source: E. coli BL21(DE3), purified (Ni-NTA, SEC)
- stoichiometry N: 2
